We go through 1 substance from article PMC2643475.

Assay [1] deals with α5β1-integrin (human (endogenous in T-HEp3)) (UniProt P05556).
Assay [2] has the same target. This is another data set of the same source.
For assay [3] the target is unchanged. The source holds these as a separate data set.
Assay [4] shares this target. Description: co-IP; as a1, with 2.5 µM compound MS#479 added for the last 15 min of the IP.

Sequence of UniProt P05556 (P05556 whole entry, looked up): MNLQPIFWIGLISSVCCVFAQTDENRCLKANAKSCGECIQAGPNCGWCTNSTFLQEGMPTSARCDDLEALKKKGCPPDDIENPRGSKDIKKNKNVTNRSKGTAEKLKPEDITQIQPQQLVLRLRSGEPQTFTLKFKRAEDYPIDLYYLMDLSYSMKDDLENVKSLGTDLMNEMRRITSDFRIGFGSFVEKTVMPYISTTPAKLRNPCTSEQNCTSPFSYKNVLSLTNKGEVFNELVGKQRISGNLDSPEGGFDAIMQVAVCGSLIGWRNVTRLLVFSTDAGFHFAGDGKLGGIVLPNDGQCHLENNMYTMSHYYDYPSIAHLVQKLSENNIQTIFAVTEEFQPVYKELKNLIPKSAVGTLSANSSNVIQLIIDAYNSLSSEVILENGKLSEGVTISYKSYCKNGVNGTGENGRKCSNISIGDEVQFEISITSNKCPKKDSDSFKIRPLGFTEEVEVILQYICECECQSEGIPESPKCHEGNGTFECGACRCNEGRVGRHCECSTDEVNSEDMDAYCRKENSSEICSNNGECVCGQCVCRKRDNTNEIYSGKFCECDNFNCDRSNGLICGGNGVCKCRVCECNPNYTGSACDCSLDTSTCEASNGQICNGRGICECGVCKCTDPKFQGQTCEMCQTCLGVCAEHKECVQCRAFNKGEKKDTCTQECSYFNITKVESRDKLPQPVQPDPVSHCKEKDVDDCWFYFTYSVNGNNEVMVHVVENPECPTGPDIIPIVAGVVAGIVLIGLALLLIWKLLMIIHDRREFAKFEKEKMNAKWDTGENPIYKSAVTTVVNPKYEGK

Consider “urokinase receptor (uPAR) (from UniProt Q03405 23-305)”, for which the Elk1-GAL4 luciferase reporter of ERK activity in T-HEp3 cells treated for 16 hrs with 5 µM MS#479; inhibition against untreated control in assay [1] is > 60%. For the same substance, the binding of HUTS-4 antibody (active conformation of β1 integrin) to T-HEp3 cells by FACS with 5 and 50 µM MS#479 or MS#305 in assay [2] amounted to 15%. In assay [3], the luciferase activity (ERK reporter, units per mg of tumor protein) in T-HEp3 tumors on chick embryo CAMs treated daily with 10 µM MS#479; inhibition against diluent was determined as 85%. Besides, the percent reduction of the uPAR/integrin association with 2.5 µM MS#479 in assay [4] was > 70%.
